This note sets out measurements from the supplement of paper PMC11246515.

± gives the standard deviation of the averaged measurements.

This data set is described as follows: total protein half-life in vivo (active degradation + dilution); higher = more stable protein.
[1] abbreviates: E. coli NCM3722 delta-clpP delta-lon delta-hslV, growth: N-lim chemostat, doubling time 6 h.
Setting [2] is: E. coli NCM3722 delta-clpP, growth: N-lim chemostat, doubling time 6 h.
[3] abbreviates: E. coli NCM3722 delta-hslV, growth: N-lim chemostat, doubling time 6 h.
Where [4] appears, read: E. coli NCM3722 delta-lon, growth: N-lim chemostat, doubling time 6 h.
Where [5] appears, read: E. coli NCM3722 delta-smpB, growth: N-lim chemostat, doubling time 6 h.
The mark [6] stands for this setting: wild type E. coli NCM3722, growth: C-lim chemostat, doubling time 3 h.
[7] abbreviates: wild type E. coli NCM3722, growth: C-lim chemostat, doubling time 6 h.
The mark [8] stands for this setting: wild type E. coli NCM3722, growth: C-lim chemostat, doubling time 12 h.
[9] abbreviates: wild type E. coli NCM3722, growth: N-lim chemostat, doubling time 6 h.
Setting [10] is: wild type E. coli NCM3722, growth: N-lim chemostat, doubling time 12 h.
The mark [11] stands for this setting: wild type E. coli NCM3722, growth: P-lim chemostat, doubling time 6 h.
Setting [12] is: wild type E. coli NCM3722, growth: P-lim chemostat, doubling time 12 h.

Take “MTHDNKLQVEAIKRGTVIDHIPAQIGFKLLSLFKLTETDQRITIGLNLPSGEMGRKDLIKIENTFLSEDQVDQLALYAPQATVNRIDNYEVVGKSRPSLPERIDNVLVCPNSNCISHAEPVSSSFAVRKRANDIALKCKYCEKEFSHNVVLAN [P0A7F3]”: the “total protein half-life in vivo” value reads like this: under setting [1], 5.57 ± 0.82 h; under setting [2], 4.6 ± 0.65 h; under setting [3], 5.27 ± 1.8 h; under setting [4], 4.92 ± 0.13 h; under setting [5], 5.09 ± 0.11 h; under setting [6], 3.33 ± 0.51 h. In addition, the “total protein half-life in vivo” value under setting [7] was 5.19 ± 0.14 h; the “total protein half-life in vivo” value under setting [8] worked out at 9.106 ± 0.024 h; the “total protein half-life in vivo” value under setting [9] amounted to 4.14 ± 0.12 h; the “total protein half-life in vivo” value under setting [10] was determined as 7.28 ± 0.48 h; the “total protein half-life in vivo” value under setting [11] is 5.64 ± 0.66 h; the “total protein half-life in vivo” value under setting [12] stood at 12.2 ± 1 h.
For the sequence “MSSISLIQPDRDLFSWPQYWAACFGPAPFLPMSREEMDQLGWDSCDIILVTGDAYVDHPSFGMAICGRMLEAQGFRVGIIAQPDWSSKDDFMRLGKPNLFFGVTAGNMDSMINRYTADRRLRHDDAYTPDNVAGKRPDRATLVYTQRCKEAWKDVPVILGGIEASLRRTAHYDYWSDTVRRSVLVDSKADMLMFGNGERPLVEVAHRLAMGEPISEIRDVRNTAIIVKEALPGWSGVDSTRLDTPGKIDPIPHPYGEDLPCADNKPVAPKKQEAKAVTVQPPRPKPWEKTYVLLPSFEKVKGDKVLYAHASRILHHETNPGCARALMQKHGDRYVWINPPAIPLSTEEMDSVFALPYKRVPHPAYGNARIPAYEMIRFSVNIMRGCFGGCSFCSITEHEGRIIQSRSEDSIINEIEAIRDTVPGFTGVISDLGGPTANMYMLRCKSPRAEQTCRRLSCVYPDICPHMDTNHEPTINLYRRARDLKGIKKILIASGVRYDIAVEDPRYIKELATHHVGGYLKIAPEHTEEGPLSKMMKPGMGSYDRFKELFDTYSKQAGKEQYLIPYFISAHPGTRDEDMVNLALWLKKHRFRLDQVQNFYPSPLANSTTMYYTGKNPLAKIGYKSEDVFVPKGDKQRRLHKALLRYHDPANWPLIRQALEAMGKKHLIGSRRDCLVPAPTIEEMREARRQNRNTRPALTKHTPMATQRQTPATAKKASSTQSRPVNAGAKKRPKAAVGR”, the “total protein half-life in vivo” value by setting is: under setting [1], 5.41 ± 1.1 h; under setting [2], 1.08 h; under setting [4], 0.614 h; under setting [6], 0.206 h; under setting [12], 1.72 h.
Regarding “MKAARQQAIVDLLLNHTSLTTEALSEQLKVSKETIRRDLNELQTQGKILRNHGRAKYIHRQNQDSGDPFHIRLKSHYAHKADIAREALAWIEEGMVIALDASSTCWYLARQLPDINIQVFTNSHPICHELGKRERIQLISSGGTLERKYGCYVNPSLISQLKSLEIDLFIFSCEGIDSSGALWDSNAINADYKSMLLKRAAQSLLLIDKSKFNRSGEARIGHLDEVTHIISDERQVATSLVTA [P0ACK8]”, the “total protein half-life in vivo” value is 4.82 ± 0.058 h under setting [1]; 2.74 ± 0.14 h under setting [2]; 0.618 h under setting [5]; 0.695 ± 0.079 h under setting [6]; 1.09 h under setting [7]; 1.36 ± 0.31 h under setting [8]. The “total protein half-life in vivo” value was found to be 1.3 h under setting [9] and 0.218 h under setting [10].
Consider “MKTETPSVKIVAITADEAGQRIDNFLRTQLKGVPKSMIYRILRKGEVRVNKKRIKPEYKLEAGDEVRIPPVRVAEREEEAVSPHLQKVAALADVILYEDDHILVLNKPSGTAVHGGSGLSFGVIEGLRALRPEARFLELVHRLDRDTSGVLLVAKKRSALRSLHEQLREKGMQKDYLALVRGQWQSHVKSVQAPLLKNILQSGERIVRVSQEGKPSETRFKVEERYAFATLVRCSPVTGRTHQIRVHTQYAGHPIAFDDRYGDREFDRQLTEAGTGLNRLFLHAAALKFTHPGTGEVMRIEAPMDEGLKRCLQKLRNAR [P0AA39]”, for which the “total protein half-life in vivo” value under setting [1] is 5.63 ± 0.067 h; the “total protein half-life in vivo” value under setting [2] was determined as 5.2 ± 0.19 h; the “total protein half-life in vivo” value under setting [3] was 5.84 ± 1 h; the “total protein half-life in vivo” value under setting [4] amounted to 5.68 ± 0.26 h; the “total protein half-life in vivo” value under setting [5] is 5.43 ± 0.88 h; the “total protein half-life in vivo” value under setting [6] was found to be 3.01 ± 0.092 h. Further, the “total protein half-life in vivo” value by setting is: under setting [7], 5.78 ± 0.14 h; under setting [8], 9.77 ± 0.8 h; under setting [9], 5.21 ± 0.31 h; under setting [10], 9.13 ± 0.59 h; under setting [11], 5.56 ± 0.089 h; under setting [12], 11.6 ± 0.92 h.
As to “MIFLMTKDSFLLQGFWQLKDNHEMIKINSLSEIKKVGNKPFKVIIDTYHNHILDEEAIKFLEKLDAERIIVLAPYHISKLKAKAPIYFVSRKESIKNLLEITYGKHLPHKNSQLCFSHNQFKIMQLILKNKNESNITSTLNISQQTLKIQKFNIMYKLKLRRMSDIVTLGITSYF”, the “total protein half-life in vivo” value runs as follows: under setting [1], 4.62 ± 0.1 h; under setting [2], 3.05 ± 0.11 h; under setting [3], 1.91 ± 0.33 h; under setting [4], 1.03 ± 0.022 h; under setting [5], 3.52 ± 0.093 h; under setting [9], 2.29 ± 0.07 h. Besides, the “total protein half-life in vivo” value reads like this: under setting [10], 3.82 ± 0.15 h; under setting [11], 2.34 ± 0.054 h; under setting [12], 6.16 ± 0.74 h.
As for “MLLATALLIVGLLLVVYSADRLVFAASILCRTFGIPPLIIGMTVVSIGTSLPEVIVSLAASLHEQRDLAVGTALGSNIINILLILGLAALVRPFTVHSDVLRRELPLMLLVSVVAGSVLYDGQLSRSDGIFLLFLAVLWLLFIVKLARQAERQGTDSLTREQLAELPRDGGLPVAFLWLGIALIIMPVATRMVVDNATVLANYFAISELTMGLTAIAIGTSLPELATAIAGVRKGENDIAVGNIIGANIFNIVIVLGLPALITPGEIDPLAYSRDYSVMLLVSIIFALLCWRRSPQPGRGVGVLLTGGFIVWLAMLYWLSPILVE”, the “total protein half-life in vivo” value under setting [1] came out at 4.93 h.
With “MKKFAAVIAVMALCSAPVMAAEQGGFSGPSATQSQAGGFQGPNGSVTTVESAKSLRDDTWVTLRGNIVERISDDLYVFKDASGTINVDIDHKRWNGVTVTPKDTVEIQGEVDKDWNSVEIDVKQIRKVNP [P0ADU5]”, the “total protein half-life in vivo” value runs as follows: under setting [1], 3.85 ± 0.19 h; under setting [2], 5.07 ± 0.71 h; under setting [3], 5.86 ± 0.11 h; under setting [4], 6.2 ± 0.35 h; under setting [5], 5.91 ± 0.28 h; under setting [6], 2.89 ± 0.69 h. In addition, the “total protein half-life in vivo” value turned out to be 5.83 ± 0.75 h under setting [7]; 6.74 ± 1.2 h under setting [8]; 6.22 ± 0.79 h under setting [9]; 11.8 ± 0.34 h under setting [10]; 4.72 ± 0.64 h under setting [11]; 7.98 ± 1.5 h under setting [12].
With “MTDVLLCVGNSMMGDDGAGPLLAEKCAAAPKGNWVVIDGGSAPENDIVAIRELRPTRLLIVDATDMGLNPGEIRIIDPDDIAEMFMMTTHNMPLNYLIDQLKEDIGEVIFLGIQPDIVGFYYPMTQPIKDAVETVYQRLEGWEGNGGFAQLAVEEE [P0AEV9]”, the “total protein half-life in vivo” value by setting is: under setting [1], 4.89 h; under setting [2], 4.16 h; under setting [3], 3.67 ± 0.094 h; under setting [4], 4.17 h; under setting [5], 3.72 ± 0.15 h; under setting [6], 3.29 ± 0.42 h. Further, the “total protein half-life in vivo” value by setting is: under setting [7], 5.01 ± 0.2 h; under setting [8], 8.74 h; under setting [9], 4.6 h; under setting [10], 6.23 h; under setting [12], 9.42 ± 0.22 h.
